Experimental data: patent US9817004B2, “Development and use of cysteine-labeled fluorescent probes of unbound analytes” (priority 2008, dated 2017)

Assays:
[1] = FFAu response-profile screening of probes (FFA specificity); type: binding; settings: cysteine labeled with acrylodan at pH 7.0; FFA to which probe has improved specificity
Procedure: In some embodiments, aliquots of the probes prepared as described above are placed in multi-well plates, suitable for fluorescence measurements. Defined amounts of unbound analytes are added to each well and a fluorescence signal from the wells containing probe and analytes are compared to wells containing only the probe. The values obtained are compared with those of a ‘reference’ probe. The analytes may be fatty acids or other unbound metabolites. Preferably, the number of wells in the multiwell plate is between 1 and 1536. […] For many analytes it is important that they be added to each well in complex with a carrier molecule, for example albumin, to buffer the unbound analyte and thereby clamp its concentration to well defined values. Clamping ensures that the concentration of analyte in the aqueous phase in the well is unaffected by binding to the surfaces of the well or the probes themselves. Clamping is essential for discovery of probes because analytes have different solubilities and therefore different affinities for surfaces. Highly insoluble analytes added without proper clamping may bind to the surfaces and be unavailable for binding to the probe. In this example the probe might incorrectly give the appearance of no response to the insoluble analyte. Thus to determine the correct response profile (specificities) for each probe each analyte's concentration must be clamped.
The fluorescence intensity ratio (“R” value) for a given probe is determined. The ratio is calculated using the following formula: R=Fλ1/Fλ2 wherein, Fλ1 is the measured fluorescence intensities (intensity of the probe with the analyte present minus intensity of the analyte without probe present) at wavelength 1 and Fλ2 is the measured fluorescence intensities (intensity of the probe with the analyte present minus intensity of the analyte without probe present) at wavelength 2. Then, for a given probe, ΔR, the difference in R value between the measurement in the presence of each analyte and in the absence of each analyte, is calculated as follows: ΔR=R+analyte−R0 The ΔR value for a given probe is then compared to a reference probe, for example, ADIFAB or ADIFAB2, by ΔR/ΔRreferenee. This value is an indication of how dissimilar the new probe (derived by mutation of the template) is to the reference. By this method, probes with new and useful characteristics may be identified. Measurements of fluorescence intensities are obtained using standard techniques.
More than 40 libraries of cysteine-labeled mutant probes, using templates derived from SEQ ID NO: 5, with the number of different mutant probes in the various libraries ranging from 2000 to 2,000,000 have been generated using the methods described in U.S. Pat. No. 7,601,510, incorporated herein by reference. […]

[2] = Bilirubin binding isotherm of dual fluorophore ratio probes (I608/I525)
Text: FIGS. 7A-7B show Bilirubin binding isotherms for two dual fluorophore bilirubin ratio probes synthesized by labeling with acrylodan and Texas red.
Because such fluorescent proteins may have other valuable characteristics it would be important to be able to convert such fluorescent proteins into probes, i.e. so that they respond to analyte binding by a change in ratio. This can be accomplished by introducing a second but different fluorophore at a different site so that either the fluorescence of the second fluorophore is insensitive or responds differently to analyte binding. In addition, the fluorescence index of second fluorophore should be measured at a distinct wavelength from the first fluorophore. […] To convert this to a fluorescence ratio probe, site specific mutagenesis was used to generate a new mutein (L2P14F7-MGCFD) in which the N-terminal alanine residue of the mature L2P14F7 mutein was replaced with glycine-cysteine. Thus, the N-terminus of the mature L2P14F7-MGCFD mutein has the sequence glycine-cysteine-phenylalanine-aspartate instead of alanine-phenylalanine-aspartate, as in the L2P14F7 template. This substitution is designated in the clone name as “MGCFD” and is sometimes described as an “N-terminal MGCFD linker”. Then L2P14F7-MGCFD was reacted with Texas Red (TR) maleimide at pH 6 under which conditions only the cysteine was labeled. […]

[3] = Fluorescence emission spectra with increasing oleic acid; type: binding; settings: acrylodan labeled; 22° C., Ex=386 nm
Procedure: FIGS. 1A-1C show Fluorescence spectra with increasing oleic acid at 22° C. Ex=386 nm.
This is an example of the type of fluorescence response that is a necessary characteristic of a probe. […] This example illustrates that altering specific sites can yield effective probes.

Row | Molecule | Specificity [1] | fluorescence response upon FFA binding (spectral shift / ratio response) [3] | other results
1 | L61P8B12: 8I 14L 18L 23L 27Y 30C 31V 53I 55W 72G 74A 78V 82V 91Y 93M 102V 106W 115W 117L 131D (protein, listed as Rattus norvegicus, acrylodan label on cysteine; MUTAGEN (131)...(131) rat intestinal fatty acid binding protein with Glu 131 to Asp subsitition.; COOH-terminal affinity tag comprising Arg132, Gly133 and 6 histidines, 8I 14L 18L 23L 27Y 30C 31V 53I 55W 72G 74A 78V 82V 91Y 93M 102V 106W 115W 117L 131D) AFDGTWKIDRNENLEKFLEKMGLNVVYRKCVAHDNLKLTITQEGNKFTVKESINWRNIDVVFELGVDFAYSGAAGTEVTGTVTMEGNKLVYKMKRVDNGKEVIAVWEISGNELIWTLTYEGVEAKRIFKKDRGHHHHHH | POA | – | –
2 | L2P14F7: bilirubin specific fluorescent protein, the M18G,G31M mutation of SEQ ID NO 4, labeled with acrylodan at lysine 27 (protein, listed as Rattus norvegicus, acrylodan label at lysine 27; MUTAGEN (72)...(72) rat intestinal fatty acid binding protein with alanine substitution for leucine at position 72 and Glu 131 to Asp subsitition.; COOH-terminal affinity tag comprising Arg132, Gly133 and 6 histidines) AFDGTWKVDRNENYEKFGEKMGINVVKRKLMAHDNLKLTITQEGNKFTVKESSNFRNIDVVFELGVDFAYSAADGTELTGTWTMEGNKLVGKFKRVDNGKELIAVREISGNELIQTYTYEGVEAKRIFKKDRGHHHHHH | – | – | analyte specificity ([2]; labeled with acrylodan at lysine 27): bilirubin specific; Kd ([2]; single site equilibrium binding, ratio I608/I525, excited at 375 nm): ~80 nM
3 | L10P7A4-L30C: acrylodan cysteine-labeled rI-FABP mutein; SEQ ID 5 mutations 14L 18L 27A 30C 31Y 72A 73L 117A 131D (protein, listed as Rattus norvegicus, acrylodan label at C30; MUTAGEN (131)...(131) rat intestinal fatty acid binding protein with Glu 131 to Asp subsitition.; COOH-terminal affinity tag comprising Arg132, Gly133 and 6 histidines) AFDGTWKVDRNENLEKFLEKMGINVVARKCYAHDNLKLTITQEGNKFTVKESSNFRNIDVVFELGVDFAYSALDGTELTGTWTMEGNKLVGKFKRVDNGKELIAVREISGNELIQTATYEGVEAKRIFKKDRGHHHHHH | DHA | – | –
4 | L50BP9D5: acrylodan cysteine-labeled rI-FABP mutein; 18L 21F 23L 27C 31N 72S 73T 74A 76I 117N 131D (protein, listed as Rattus norvegicus, acrylodan label on cysteine; MUTAGEN (131)...(131) rat intestinal fatty acid binding protein with Glu 131 to Asp subsitition.; COOH-terminal affinity tag comprising Arg132, Gly133 and 6 histidines, acrylodan cysteine-labeled rI-FABP mutein; 18L 21F 23L 27C 31N 72S 73T 74A 76I 117N 131D) AFDGTWKVDRNENYEKFLEKFGLNVVCRKLNAHDNLKLTITQEGNKFTVKESSNFRNIDVVFELGVDFAYSSTAGIELTGTWTMEGNKLVGKFKRVDNGKELIAVREISGNELIQTNTYEGVEAKRIFKKDRGHHHHHH | PA/POA | – | –
5 | L68P3H10: 18L 23A 27C 31N 33N 55Q 72W 73T 74L 76I 106A 115E 117V 131D (protein, listed as Rattus norvegicus, acrylodan label on cysteine; MUTAGEN (131)...(131) rat intestinal fatty acid binding protein with Glu 131 to Asp subsitition.; COOH-terminal affinity tag comprising Arg132, Gly133 and 6 histidines, 18L 23A 27C 31N 33N 55Q 72W 73T 74L 76I 106A 115E 117V 131D) AFDGTWKVDRNENYEKFLEKMGANVVCRKLNANDNLKLTITQEGNKFTVKESSNQRNIDVVFELGVDFAYSWTLGIELTGTWTMEGNKLVGKFKRVDNGKELIAVAEISGNELIETVTYEGVEAKRIFKKDRGHHHHHH | DHA | – | –
6 | ADIFAB: rat intestinal FABP (SEQ ID NO:2) labeled with acrylodan at lysine 27 (protein, listed as Rattus norvegicus, acrylodan label at K27; PEPTIDE (1)...(131) wild-type rat intestinal fatty acid binding protein; …ON (1)...(1)) AFDGTWKVDRNENYEKFMEKMGINVVKRKLGAHDNLKLTITQEGNKFTVKESSNFRNIDVVFELGVDFAYSLADGTELTGTWTMEGNKLVGKFKRVDNGKELIAVREISGNELIQTYTYEGVEAKRIFKKE | – | red shift in its fluorescence emission spectrum upon binding FFA | –
7 | V26C K27A: SEQ ID NO:2 with lysine 27 mutated to alanine, valine 26 to cysteine, cysteine labeled with acrylodan (protein, listed as Rattus norvegicus, acrylodan label on cysteine 26; PEPTIDE (1)...(131) wild-type rat intestinal fatty acid binding protein; …ON (1)...(1)) AFDGTWKVDRNENYEKFMEKMGINVCARKLGAHDNLKLTITQEGNKFTVKESSNFRNIDVVFELGVDFAYSLADGTELTGTWTMEGNKLVGKFKRVDNGKELIAVREISGNELIQTYTYEGVEAKRIFKKE | – | yields a ratio response upon FFA binding | –
8 | K27C: lysine 27 of SEQ ID NO:2 mutated to cysteine and the cysteine labeled with acrylodan (protein, listed as Rattus norvegicus, acrylodan label at C27; PEPTIDE (1)...(131) wild-type rat intestinal fatty acid binding protein; …ON (1)...(1)) AFDGTWKVDRNENYEKFMEKMGINVVCRKLGAHDNLKLTITQEGNKFTVKESSNFRNIDVVFELGVDFAYSLADGTELTGTWTMEGNKLVGKFKRVDNGKELIAVREISGNELIQTYTYEGVEAKRIFKKE | – | without the necessary spectral shift to yield a ratio probe | –
